The values below come from PMC7282669, “The hydrophobic effect characterises the thermodynamic signature of amyloid fibril growth” (PLoS Computational Biology, 2020).

The series deals with the molecule itself. Kind of series: ITC; crystals injected into water; heat of crystal dissolution taken as the negative of the heat of crystal growth; two temperatures. For orientation: ITC needs no label: the signal is the heat of the interaction.

B1: GNNQQNY, a small fragment of the Sup35 protein (peptide)
peptide: GNNQQNY
notes: fragment of the Sup35 protein; Forms amyloid-like microcrystals; also called GNNQQNY peptide
For B1, the binding result is “binds”.
